Measurements taken from patent publication US20050118229A1, “Implantable drug delivery device for sustained release of therapeutic agent” (iMEDD, Inc., priority 2003, published 2005).

How the values were obtained:
[1] = Hydration of lysozyme particles through planar microporous membrane (dual sub-chamber device of FIG. 1); type: physicochemical
Excerpt: The data presented in FIG. 3 is illustrative of zero-order hydration of the surrogate molecule lysozyme using the planar version of the microporous membrane shown in FIG. 1. In this experiment, three identical acrylic chambers were used, each chamber including two subchambers separated by a planar microporous membrane. The microporous membrane was a Whatman 1PS Phase Separator having a diameter of […] (area=113 mm^2).
The lower portion of the chamber (i.e., the lower sub-chamber) was filled with 2.7 milliliters of the water-immiscible solvent, perfluorodecalin. Suspended in this solvent were 20 mg of solid lysozyme particles having an average particle size of 90 micrometers. The range of particle sizes was 75 to 105 micrometers. […] The upper portion of the chamber (i.e., the upper sub-chamber) contained 0.3 milliliters of phosphate buffered saline solution. A stirring bar was placed in the lower sub-chamber of each device to agitate the solvent at ambient temperature during the fifty-two day test period. After thirty-seven days, stirring was stopped to determine whether or not agitation had any effect on the hydration rate. The buffer solution in the upper sub-chamber of each device was removed each day and replaced with a fresh supply of solution. The lysozyme content of the upper sub-chamber samples was analyzed periodically to determine the quantity of lysozyme material that had dissolved in a one-day time period. The daily mass of lysozyme that was present in the upper sub-chamber was added to the sum of the previous days, thus the data in FIG. 3 represents the total mass of hydrated lysozyme.
The effect of longer release periods is substantially equivalent to determining the release rate with decreasing amounts of lysozyme present in the device enclosure. To determine release variations over longer periods of time, additional planar-membrane, dual-chamber experiments were conducted using different initial amounts of lysozyme loaded, i.e., suspended, in the perfluorodecalin used to fill the lower sub-chamber. […] These average hydration rates are plotted in FIG. 5 as a function of the amount of mass loaded (100%=20 mg).

[2] = Hydration of lysozyme particles from cylindrical capsule-like microporous membrane packet (FIG. 2); type: physicochemical
Description: FIG. 6 provides hydration results for a device utilizing the three-dimensional capsule-like embodiment of the microporous membrane (see FIG. 2). For this experiment, a section of Whatman 1PS Phase Separator membrane was formed into a cylinder and sealed lengthwise and at both ends. The resulting cylinder was 10 mm in length and 4 mm in diameter (125 mm^2 membrane area). The cylinder was filled with approximately 1.4 mg of solid lysozyme having an average particle size of 90 micrometers combined with approximately 125 μl of the water-immiscible solvent perfluorodecalin,
The particle-filled cylinder described above was placed in a well containing 1.5 milliliters of phosphate buffered saline. A series of 70 μl samples were removed from the well at various time intervals. These samples were analyzed, and the results in FIG. 6 are the summation of mass hydrated as a function of time. Approximately 2.6 μg of lysozyme per day (i.e., 0.021 μg/mm^2) was hydrated after a nine-day delay. This observed rate is a factor of four less than the hydration rate observed in the previously discussed planar membrane experiments; however, because the entire membrane area was not active for the cylinder-shaped membrane, the release per unit area data is in reasonable agreement bwtween the two experiments. Thus, the data shown in FIGS. 4-6 provide a clear indication that the devices shown in FIGS. 1 and 2 are capable of providing the long-term zero-order release desired for an implantable drug-delivery device.

lysozyme
hydration rate relative to its original value ([1]; 2 mg loaded (10% of 20 mg)): 83% | hydration rate ([1]; 2 mg suspended lysozyme, planar membrane): 7.7 micrograms/day | hydration rate ([1]; 5 mg suspended lysozyme, planar membrane): 8.9 micrograms/day | lysozyme mass hydrated ([1]; 20 mg loaded, over the fifty-two day testing period): 2% | initial delay before hydration ([1]; 20 mg lysozyme loaded, planar membrane): eight to fourteen | average hydration rate per membrane area ([1]; 20 mg lysozyme loaded, planar membrane area 113 mm^2): 0.082 ug/day/mm^2 | average hydration rate ([1]; 20 mg solid lysozyme particles loaded in perfluorodecalin, planar Whatman 1PS membrane, PBS, ambient temperature, 52 day test): 9.3 micrograms per day | decrease of hydration rate ([1]; during the time the mass of lysozyme decreases by 80%): 4% | lysozyme hydrated per day ([2]; approx. 1.4 mg lysozyme in approx. 125 μl perfluorodecalin, cylinder 125 mm^2 Whatman 1PS, 1.5 ml PBS): Approximately 2.6 μg per day | factor by which rate is less than the planar membrane hydration rate ([2]; cylinder versus planar membrane experiments): four | delay before hydration ([2]; cylinder-shaped membrane): nine | lysozyme hydrated per membrane area ([2]; cylinder-shaped membrane, 125 mm^2 membrane area): ~0.021 μg/mm^2
